{
  "source": "patent US20210308188A1",
  "about": "“CELL CLUSTER INCLUDING OLFACTORY NEURON OR PRECURSOR CELL THEREOF, AND METHOD FOR PRODUCING SAME” (SUMITOMO CHEMICAL COMPANY, LIMITED, priority 2018, published 2021)",
  "molecules": {"B1": {"name": "BMP4: BMP signaling pathway-activating substance, manufactured by R&D Systems (protein, UniProt P12644 293-408, looked up)", "Bone morphogenetic protein 4": "SPKHHSQRARKKNKNCRRHSLYVDFSDVGWNDWIVAPPGYQAFYCHGDCPFPLADHLNSTNHAIVQTLVNSVNSSIPKACCVPTELSAISMLYLDEYDKVVLKNYQEMVVEGCGCR"}},
  "key": {"human ES cells": {"test_system": "human ES cells", "experiment": "Study for addition-concentration of BMP signaling pathway-activating substance in cell cluster production (Experiment 7)", "format": "cell-based", "method": "In Experiment 7, a study of cell cluster production efficiency was performed for concentration of the BMP signaling pathway-activating substance in step (2), using human ES cells. The same experimental manipulations as in Experiment 2 (see the upper section of FIG. 8) were performed, and the concentration of BMP4 in the medium in step (2) was set to 7 conditions of 0.025 nM, 0.1 nM, 0.25 nM, 0.5 nM, 1.5 nM, 5 nM, and addition-free control.\nOn day 28 after the start of suspension culturing, bright-field observation was performed with an inverted microscope.\nIn addition, evaluation was performed for the cell clusters formed by adding each concentration of BMP4 according to the following four stages: cell cluster in a form close to spherical, whose 80% or more of the entire circumference was covered with non-neural epithelial tissue part (Grade 1, example=FIG. 20A); cell cluster whose 40% to 80% of the entire circumference was covered with non-neural epithelial tissue part or cell cluster in a distorted form (Grade 2, example=FIG. 20B); cell cluster whose ratio of non-neural epithelial tissue parts in the surface of the cell cluster was 40% or less (Grade 3, example=FIG. 20C); and cell cluster in which no non-neural epithelial tissue part was formed (Grade 4, example=FIG. 20D). The evaluation was performed by bright-field observation with an inverted microscope. As a result, non-neural epithelial tissues were not observed under the culture condition without adding of BMP4, as shown in FIG. 20E. Under the culture conditions in which 0.5 nM or more BMP4 was added in step (2), the Grade 1 cell clusters in a form close to a sphere, whose 80% or more of the entire circumference was covered with the non-neural epithelial tissue parts, were formed with high efficiency."}, "human iPS cells": {"test_system": "human iPS cells", "experiment": "Study for time to add BMP signaling pathway-activating substance in cell cluster production (Experiment 11)", "format": "cell-based", "conditions": "observed day 13", "method": "In Experiment 11, study of cell cluster production efficiency was performed for time to add the BMP signaling pathway-activating substance, that is, the start time of step (2), by changing the time to add the BMP signaling pathway-activating substance from day 1 to day 6 after the start of suspension culturing, using human iPS cells. The experiments were performed in accordance with the procedures shown in the upper section of FIG. 25, and the same experimental manipulations as in Experiment 3 were performed except for those specifically indicated.\nMaintenance-cultured human iPS cells were subjected to step (a), and then the human iPS cells dispersed into single cells were suspended into 100 μl of a serum-free medium in a non-cell-adhesive 96-well three-dimensional culture vessel (PrimeSurface 96 slit-well plate, MS-9096S, manufactured by Sumitomo Bakelite Co., Ltd.) to be 1×10^4 cells per well, and the cells were suspension-cultured under conditions of 37° C., 5% CO2. At the start of suspension culturing (day 0 after the start of suspension culturing, start of step (1)), Y27632 (final concentration 20 μM), IWP-2 (final concentration 2 μM) and SB-431542 (final concentration 1 μM) were added to the serum-free medium.\nOn any of days 1, 2, 3, 4, and 6 after the start of suspension culturing, a serum-free medium being free of Y27632 and containing IWP-2, SB-431542 and BMP4 was added at 100 μl per well (start of step (2)). BMP4 was added to the medium at 3 nM to be a final concentration in the well of 1.5 nM.\nIn addition, on day after the addition of a serum-free medium containing BMP4, the medium was half exchanged with a serum-free medium being free of Y27632 and BMP4 and containing SB-431542, K02288, FGF2, Heparin Sodium, and EGF (start of step (3c)). K02288, FGF2, Heparin Sodium, and EGF were added to the medium at 20 μM, 40 ng/ml, 20 μg/ml, and 40 ng/ml, respectively, to be final concentrations in the well were 10 μM, 20 ng/ml, 10 μg/ml, and 20 ng/ml. […]"}},
  "data": [
    {"molecule": "B1", "values": [
      {"measurement": "quality evaluation grade of cell clusters (circumference covered with non-neural epithelial tissue part)", "setting": "human ES cells; 0.5 nM or more BMP4 added in step (2), day 28, formed with high efficiency", "result": "Grade 1 (cell cluster in a form close to spherical, whose 80% or more of the entire circumference was covered with non-neural epithelial tissue part)"},
      {"measurement": "diameter of spherical cell clusters formed", "setting": "human ES cells; all BMP4 concentrations (0.025 to 5 nM) in step (2), day 28 after start of suspension culturing, bright-field observation", "result": "around 600 μm"},
      {"measurement": "concentration of BMP4 added in step (2) at which Grade 1 cell clusters were formed with high efficiency", "setting": "human ES cells; day 28, bright-field observation", "result": "≥ 0.5", "unit": "nM"},
      {"measurement": "formation of non-neural epithelial tissue on the surface of the cell aggregate", "setting": "human iPS cells; BMP4 1.5 nM added on any of days 1, 2, and 3 after start of suspension culturing", "result": "a non-neural epithelial tissue was formed on the surface of the cell aggregate"},
      {"measurement": "formation of cell aggregates having non-neural epithelial tissues on the surface with larger diameter", "setting": "human iPS cells; BMP4 1.5 nM added on day 2 after start of suspension culturing", "result": "most efficiently and stably formed"},
      {"measurement": "formation of non-neural epithelial tissue on the surface of the cell aggregates", "setting": "human iPS cells; BMP4 1.5 nM added on day 4 or 6 after start of suspension culturing", "result": "no formation of non-neural epithelial tissue was observed"}
    ]}
  ]
}
